Laboratory results as given in patent publication EP1870419A2 (Praecis Pharmaceuticals Incorporated, dated 2000).
Square brackets hold non-standard residues; d marks the D form. dPhe(4-F) = N[C@H](Cc1ccc(F)cc1)C(=O)O

B1: PPI 913: TFA·N,N-dimethyl-(affvl)-NH2 (peptide)
peptide: {N,N‑dimethyl}-[dA][dF][dF][dV][dL]-NH2
modifications: also: TFA salt
B2: PPI 1005: TFA·N,N-diethyl-(Gaffvl)-NH2 (peptide)
peptide: {N,N‑diethyl}-G[dA][dF][dF][dV][dL]-NH2
modifications: also: TFA salt
B3: PPI 993: TFA·H-(lvffa)-dimethylamide (peptide)
peptide: H-[dL][dV][dF][dF][dA]-NMe2
modifications: also: TFA salt
B4: PPI 968: TFA·N-methyl-(Gaffvl)-NH2 (peptide)
peptide: {N‑methyl}-G[dA][dF][dF][dV][dL]-NH2
modifications: also: TFA salt
B5: PPI 803: TFA·N,N-dimethyl-(Gaffvl)-NH2 (peptide)
peptide: {N,N‑dimethyl}-G[dA][dF][dF][dV][dL]-NH2
modifications: also: TFA salt
B6: PPI 970: TFA·N-isopropyl-(Gaffvl)-NH2 (peptide)
peptide: {N‑isopropyl}-G[dA][dF][dF][dV][dL]-NH2
modifications: also: TFA salt
B7: PPI 1006: TFA·N,N-diethyl-(affvl)-NH, (peptide)
peptide: {N,N‑diethyl}-[dA][dF][dF][dV][dL]-NH2
modifications: also: TFA salt
B8: PPI-1319: TFA·H-(lf-[p-F]f-vl)-NH2 (peptide)
peptide: H-[dL][dF][dPhe(4-F)][dV][dL]-NH2
modifications: also: TFA salt
B9: PPI 1321: 2TFA·H-(lfkvl)-NH2 (peptide)
peptide: H-[dL][dF][dK][dV][dL]-NH2
modifications: also: TFA salt

How the values were obtained:
[1] = target: T1, Aβ1-40 peptide (natural β-amyloid peptide, β-AP1-40) (In the fibril binding assay the peptide stood as aged fibrils (many copies, number not stated). In the nucleation assay [CUT]); assay: cell-based or functional assay
[2] = target: T1, Aβ1-40 peptide (natural β-amyloid …); assay: cell-based or functional assay; remark: listed apart in the source

Binder	Nucleation assay Δlag, 1.25 µM compound [1]	Nucleation assay Δlag, 2.5 µM compound [1]	Nucleation assay Δlag, 5 µM compound [1]	Nucleation assay data (Δlag), 0.3 µM compound [2]	Nucleation assay data (Δlag), 1 µM compound [2]	Nucleation assay data (Δlag), 3 µM compound [2]
B1	1 fold of control lag time	1 fold of control lag time	1 fold of control lag time			
B2	1 fold of control lag time	3 fold of control lag time	3 fold of control lag time			
B3	1 fold of control lag time	1 fold of control lag time	1 fold of control lag time			
B4	2 fold of control lag time	> 5 fold of control lag time	> 5 fold of control lag time			
B5	< 1 fold of control lag time	< 1 fold of control lag time	< 1 fold of control lag time			
B6	1 fold of control lag time	> 5 fold of control lag time	> 5 fold of control lag time			
B7	1 fold of control lag time	1 fold of control lag time	1 fold of control lag time			
B8				1 fold of control lag time	> 5 fold of control lag time	> 5 fold of control lag time
B9				< 1 fold of control lag time	< 1 fold of control lag time	< 1 fold of control lag time
